Reference: patent US20240409645A1
Changes are numbered by the printed parent chain.

T1: mouse IL-2Rβ (mouse) (UniProt P16297)
T1 sequence (looked up): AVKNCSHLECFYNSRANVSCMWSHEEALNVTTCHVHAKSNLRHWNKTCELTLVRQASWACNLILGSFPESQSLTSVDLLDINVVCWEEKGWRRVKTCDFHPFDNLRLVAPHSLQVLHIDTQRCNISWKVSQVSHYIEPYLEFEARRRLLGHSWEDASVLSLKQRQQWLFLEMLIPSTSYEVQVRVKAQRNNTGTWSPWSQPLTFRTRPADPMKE

B1: FJ1427_P035MP02H11 (VHH)
VHH: EVQLVESGGGLVQAGGSLRLSCAASGRTFSTTEMGWFRQAPGKEREFVAAITWTGRGTMYAESVEGRFTISRENAKNMVYLQMNSLKPEDTAIYYCAAARRGRAAVRSEGGYDFWGQGTQVAVSS
B2: FJ1427 P035MP02A12 (VHH)
VHH: QVQLQESGGGLVQAGGSLRLSCAVSGRSFRNYVMGWFRQAPGREREIVAGITQFTSTTYYDDSVKGRFTISRDNAKNTVYLQMNSLKPEDTALYYCAADRSIKMTADWAYWGQGTQVTVSS
B3: FJ1427 P035MP02B12 (VHH)
VHH: QVQLVESGGGLVQAGGSLRLSCAASGRADSNAIMAWFRQAPGKEREFIVAVTYSGMPTYQDDSVQGRFTASRDNAKNTVYLQMNSLKPEDTAVYYCAARMYSASTYYGDYDYWGQGTQVTVSS
B4: FJ1427_P035MP02C12 (VHH)
VHH: EVQLVESGGGSVQAGGSLRLSCAASGRTFSDYTMGWFRQAPGKEREFVVAITGTGHTTDMPDSVEGRFTISRDNAKNTIYLDMKNLKPGDTAVYYCASARGLPVTPLGDIIYWGEGTLVTVSS
B5: FJ1427_P035MP02D12 (VHH)
VHH: QVQLVESGGGLVQAGGSLTLSCAASGGAFSSDAKAWFRQAPGKEREFVAAITWAGRGTDYADSVKGRFTITRDNAKATVHLQMNSLKPEDTAVYYCALNPRGVIGPAFRNSNHYTYWGQGTQVTVSS
B6: FJ1427_P035MP02E12 (VHH)
VHH: QVQLQESGGGLVQAGGSMRLSCAASGRTFSNYVIAWFRQAPGKEREFVGAITQTGRGTFYASSVEGRFTLSRLNDQSTVYLQMNSLNPEDTGVYYCSAPRSGRAGTRNQMDYEYWGQGTQVTVSS
B7: FJ1427 P035MP02F12 (VHH)
VHH: QLQLVESGGGLVQTGTSLRLSCAASGHTSRINAMGWFRQFPGKEREFVAAISRNGGSTVYVDSVKGRFTISRDNAKSTVYLQMNSLKPEDTAVYYCTATDAVGWTTRWMTADFGFWGQGTQVTVSS
B8: FJ1427 P035MP03B01 (VHH)
VHH: QVQLVESGGGLVQAGGSLRLSCAASGFTFSNYAMSWVRQAPGKGLEWVSSITGFGRGTDYADSVKGRFTISRDNAKNTLYLQMNSLKPEDTAVYYCARYSSSTYYPPTPARGTDYRGQGTQVTVSS
B9: FJ1427 P035MP03D01 (VHH)
VHH: B8 VHH with A14P, R19G, S30D, F54A, D59H, R98K, Q118P
B10: FJ1427 P035MP03E01 (VHH)
VHH: QVQLVESGGGLVQAGGSLRLSCAASGGTFSSYAMGWFRQAPGKEREFVAATTRGGGRTMYAVSTEGRFTCSRDNAKNTVYLLMNSLKPEDTAVYYCAAMTSYYSGTYYPDSSDFDIWGQGTQVTVSS
B11: FJ1427_P035MP03F01 (VHH)
VHH: QVQLVESGGGLVQVGGSLRVSCAASGRTSGDRNMGWFRQAPGKEREFVGIITWSSGSTVYADSVKGRFTISRDNAKNTVYLDMSSLKPEDTAVYYCAADYYPYSGSWNIMDYWGKGTLVTVSS
B12: FJ1427_P035MP03G01 (VHH)
VHH: B10 VHH with Q1E, S85R, L86V, M99R, D110A
B13: FJ1427_P035MP03H01 (VHH)
VHH: QVQLVESGGGSVQTGGSLRLSCVVSGSHFISDVMGWYRQVPGKQRELVADMADGGSAKYADSVKGRFTILRDSVKNTVTLQMSSLNPEDTGVYYCKAGLWITGRHSDYWGQGTQVTVTS
B14: FJ1427_P035MP03A02 (VHH)
VHH: B10 VHH with K76E, L82Q, V93I
B15: FJ1427_P035MP03B02 (VHH)
VHH: EVQLVESGGGLVQVGDSLRLSCAASGRTVGSANMGWFRQAPGKEREFVAVITWSTGSTVYADSVKGRFTISRDNAKNTVYLDMSSLKPDDTAVYYCAADVYPYSGNLNIMDYWGKGTLVTVSS
B16: FJ1427 P035MP03C02 (VHH)
VHH: B15 VHH with E1Q, D89E
B17: FJ1427 P035MP03D02 (VHH)
VHH: QVQLQESGGGLVQTGGSLRLSCAVSGSRFISDVMGWYRQVPGKQRELVADMADGGSAKYADSVKGRFSILRDSVKNTVYLQMSSLKPEDTGIYYCKAGLWLAGRHSDYWGQGTQVTVSS
B18: FJ1427_P035MP03E02 (VHH)
VHH: QVQLVESGGGLVQVGGSLSVSCAASGRSFDSITMAYFRQAPGNEREFIAGINFSGSRTAYGDSVKGRFTISRDNAKNTVFLQMNSLNPEDTAVYYCAASPRGFYGPGHALYDYWGQGTQVTVSS
B19: FJ1427_P035MP03F02 (VHH)
VHH: B8 VHH with A14P, F54A, D59Y, A75D, R98K, S100D, T113I, D114A, Y115D, T120I
B20: FJ1427_P035MP03G02 (VHH)
VHH: EVQLVESGGGLVQPGGSLRLSCAISGGTLDSYGIGWVRQAPGKQREGVSCMSRSDDRTFYADSVKGRFTISKDNAKSTVYLQMTNLKPDDTAVYYCAAVDAYGCSLVQPTTYDFWGLGTQVTVSS
B21: FJ1427 P035MP03A03 (VHH)
VHH: B13 VHH with Q1E, A57V, A60G, S106F
B22: FJ1427_P035MP03D03 (VHH)
VHH: B15 VHH with E1Q, M83L, D89E, L118Q
B23: FJ1427_P035MP03G03 (VHH)
VHH: B8 VHH with A14P, R19G, S30D, F54A, D59H, R98K, Q118P
B24: FJ1427_P035MP03A04 (VHH)
VHH: B13 VHH with Q1E, A57V, A60G, S106F
B25: FJ1427 P035MP03B04 (VHH)
VHH: QVQLVESGGGLVQTGGSLRLSCAASGSQFINDVMGWYRQVPGKQRELVADMDDTGSTKYADSVKGRFTILRDSVKNTAYLQMSNLKPEDTGVYYCKAGLWIKGRHSDYWGQGTQVTVSS

Each binder was assayed against T1, mouse IL-2Rβ (mouse) (assay: P.E. binding ELISA on coated protein).
B1 showed a P.E. binding ELISA OD of 0.049 OD450 nm.
B2 was tested, and the P.E. binding ELISA OD was 0.047 OD450 nm.
With B3 the P.E. binding ELISA OD was 0.048 OD450 nm.
B4 was tested, and the P.E. binding ELISA OD was 0.047 OD450 nm.
In the case of B5, the P.E. binding ELISA OD is reported as 0.046 OD450 nm.
Binder B6 has a P.E. binding ELISA OD of 0.048 OD450 nm.
B7 showed a P.E. binding ELISA OD of 0.048 OD450 nm.
In the case of B8, the P.E. binding ELISA OD is reported as 0.05 OD450 nm.
For B9, the P.E. binding ELISA OD was 0.048 OD450 nm.
B10 was tested, and the P.E. binding ELISA OD was 0.049 OD450 nm.
In the case of B11, the P.E. binding ELISA OD is reported as 0.049 OD450 nm.
B12 was tested, and the P.E. binding ELISA OD was 0.049 OD450 nm.
B13 showed a P.E. binding ELISA OD of 0.051 OD450 nm.
B14 gave a P.E. binding ELISA OD of 0.052 OD450 nm.
B15 gave a P.E. binding ELISA OD of 0.068 OD450 nm.
Work on B16 yielded a P.E. binding ELISA OD of 0.048 OD450 nm.
With B17 the P.E. binding ELISA OD was 0.048 OD450 nm.
Work on B18 yielded a P.E. binding ELISA OD of 0.05 OD450 nm.
In the case of B19, the P.E. binding ELISA OD is reported as 0.049 OD450 nm.
B20 showed a P.E. binding ELISA OD of 0.049 OD450 nm.
With B21 the P.E. binding ELISA OD was 0.05 OD450 nm.
In the case of B22, the P.E. binding ELISA OD is reported as 0.048 OD450 nm.
For B23, the P.E. binding ELISA OD was 0.05 OD450 nm.
B24 showed a P.E. binding ELISA OD of 0.051 OD450 nm.
For B25, the P.E. binding ELISA OD was 0.048 OD450 nm.
